Settings: Vigna radiata; pH 7; 37 °C; GdnHCl; Fluorescence; Tris-HCl 10 mM; NaCl 100 mM; whole UniProt chain shown

B1: wild type, Q6T418 (protein)
chain: MERKTFSFLFLLLLVLASDVAVERGEARTCMIKKEGWGKCLIDTTCAHSCKNRGYIGGNCKGMTRTCYCLVNC
- denaturant midpoint (higher = more stable): 4.17 M
